2 molecules from US20110117113A1, “IMMUNOGLOBULIN SINGLE VARIABLE DOMAIN DIRECTED AGAINST HUMAN CXCR4 AND OTHER CELL ASSOCIATED PROTEINS AND METHODS TO GENERATE THEM” (priority 2009, published 2011) can be followed below.

For test [1], the target named is T1, CXCR4 mutation library (Human CXCR4-short) (Homo sapiens, UniProt P61073, F189V).
T1 construct: expressed in transfected cells; host or cells: HEK-293T, transient, 384-well
Description: Shotgun mutagenesis epitope mapping, immunofluorescence on CXCR4 mutation library in HEK-293T. The conditions noted are these: residue F189; mutation F189V; normalized to wild type; 3 experiments (+/−range). The class given is binding. From the text: (§1) Method: See e.g. Willis, et al. 2008. Virus-like particles as quantitative probes of membrane protein interactions. Biochemistry 47:6988-6990. In short, the method comprises the following steps:
(§2) Create comprehensive mutation library • Start with a cDNA in eukaryotic expression plasmid • Create library where every amino acid is individually mutated
(§3) Express each clone within living cells in 384-well microplates
(§4) Detect structure and/or function of proteins
(§5) • Parental plasmid: Human CXCR4-short (SEQ ID NO: 6, 352 amino acids) • Epitope tags: N-terminal Flag (to detect surface expression), C-terminal V5 (to detect full-length translation) • Cell types used for immunofluorescence assays: HEK-293T
(§6) The immunofluorescence assay conditions (to detect binding) were optimized for the nanbodies to be tested. In short, 384-well immunofluorescence (IF) assay using HEK-293T cells transiently was transfected with different concentrations of CXCR4 DNA. The plate was first incubated with different concentrations of either Nanobody 238D2 or 238D4, then with 9E10, and finally with Cy3. The commercially-available anti-CXCR4 MAb 12G5 was used as an IF control.
(§7) Mapping Nanobody Binding to CXCR4 Mutation Library: The entire library was screened in triplicate with each Nanobody. The data was background-subtracted and normalized to wild type reactivity and averaged across the repeats. Nanobody binding was plotted as a function of average surface expression, and measured by immunoreactivity of an N-terminal Flag epitope tag. Thresholds of 60% Flag and 30% Nanobody were used to identify critical clones. Using standard IF conditions, we identified 1 critical residue (2 critical clones). Using increased stringency assay conditions (high salt), we identified 5 additional residues (Tables C-3 and C-4).

Test [2] addresses T2, CXCR4 mutation library (Human CXCR4-short) (Homo sapiens, UniProt P61073, E277A/I245V/N298S).
T2 construct: expressed in transfected cells; host or cells: HEK-293T, transient, 384-well
Described as above. The conditions noted are these: residue E277; mutations E277A, I245V, N298S; normalized to wild type; 3 experiments (+/−range); 238D2 critical residues under high stringency. The class given is binding.
Description: as §1, §2, §3, §4, §5, §6, §7

The test system of test [3] is CXCR4 mutation library (Human CXCR4-short). The test is described as above. The class given is binding.
Description: as §1, §2, §3, §4, §5, §6, §7

For test [4], the target named is T3, CXCR4 mutation library (Human CXCR4-short) (Homo sapiens, UniProt P61073, C218R/E179V/S351T).
T3 construct: expressed in transfected cells; host or cells: HEK-293T, transient, 384-well
The test is described as above. The format is binding. The conditions noted are these: residue E179; mutations C218R, E179V, S351T; normalized to wild type; 3 experiments (+/−range).
Description: as §1, §2, §3, §4, §5, §6, §7

Test [5] deals with T4, CXCR4 mutation library (Human CXCR4-short) (Homo sapiens, UniProt P61073, F189L/S319P/V155E).
T4 construct: expressed in transfected cells; host or cells: HEK-293T, transient, 384-well
Described as above. The conditions noted are these: residue F189; mutations F189L, S319P, V155E; normalized to wild type; 3 experiments (+/−range). The class given is binding.
Description: as §1, §2, §3, §4, §5, §6, §7

Test [6] concerns the target T5, CXCR4 mutation library (Human CXCR4-short) (Homo sapiens, UniProt P61073, P163L/S178I).
T5 construct: expressed in transfected cells; host or cells: HEK-293T, transient, 384-well
The description is as above. The format is binding. The conditions noted are these: residue S178; mutations P163L, S178I; normalized to wild type; 3 experiments (+/−range).
Description: as §1, §2, §3, §4, §5, §6, §7

For test [7], the target named is T6, CXCR4 mutation library (Human CXCR4-short) (Homo sapiens, UniProt P61073, W195R).
T6 construct: expressed in transfected cells; host or cells: HEK-293T, transient, 384-well
The test is described as above. The conditions noted are these: residue W195; mutation W195R; normalized to wild type; 3 experiments (+/−range); 238D2 critical residues under high stringency. The class given is binding.
Description: as §1, §2, §3, §4, §5, §6, §7

Test [8] concerns the target T7, CXCR4 mutation library (Human CXCR4-short) (Homo sapiens, UniProt P61073, K230E/S178R).
T7 construct: expressed in transfected cells; host or cells: HEK-293T, transient, 384-well
The description is as above. The conditions noted are these: residue S178; mutations K230E, S178R; normalized to wild type; 3 experiments (+/−range). The format is binding.
Description: as §1, §2, §3, §4, §5, §6, §7

Test [9] concerns the target T8, CXCR4 mutation library (Human CXCR4-short) (Homo sapiens, UniProt P61073, N192K).
T8 construct: expressed in transfected cells; host or cells: HEK-293T, transient, 384-well
The test is described as above. The format is binding. The conditions noted are these: residue N192; mutation N192K; normalized to wild type; 3 experiments (+/−range); 238D2 critical residues under high stringency.
Description: as §1, §2, §3, §4, §5, §6, §7

The target of test [10] is T9, CXCR4 mutation library (Human CXCR4-short) (Homo sapiens, UniProt P61073, D187A/Y157C).
T9 construct: expressed in transfected cells; host or cells: HEK-293T, transient, 384-well
The description is as above. The class given is binding. The conditions noted are these: residue D187; mutations D187A, Y157C; normalized to wild type; 3 experiments (+/−range).
Description: as §1, §2, §3, §4, §5, §6, §7

The target of another test is T10, CXCR4 (Homo sapiens, UniProt P61073).
T10 construct: expressed in transfected cells; host or cells: HEK293T, transient; membrane fraction
Description: Competition binding, displacement of [^125I]-238D2 on membranes from HEK293T cells transiently expressing CXCR4. The conditions noted are these: mean ± S.E.M. The protocol:
Iodine incorporation and specific activity were controlled via precipitation of the protein with trichloroacetic acid.
Competition binding assay—Periplasmic fractions were screened in a competition binding assay using membranes from HEK293T cells transiently expressing CXCR4. […] Membranes were then harvested over polyethylenimine (0.5%)-treated Whatman GF/C filter plates and washed three times with ice cold binding buffer containing 500 mM NaCl. Plates were counted by liquid scintillation.
Characterization of Nanobody binding to CXCR4—Following purification, receptor binding to characteristics for 238D2 and 238D4 were investigated on cell membranes from HEK293T cells transiently expressing CXCR4.
Data analysis and presentation—Data are presented as mean±S.E.M. from n independent experiments. Concentration response curves (E/[A] curves) were fitted to the Hill equation using an iterative, least-squares method (GraphPad Prism 4.0, GraphPad Software, San Diego, Calif.) to provide maximal inhibitory effects (Imax), half maximal effective (EC50) or inhibitory concentrations (IC50). Competition binding affinities and functional antagonist affinities (Ki) were calculated using the Cheng and Prusoff equation Ki=IC50/(1+[agonist]/EC50) (Cheng & Prusoff, 1973).

For test [11], the target named is all CXCR4 library clones containing a mutation at D187. Description: immunofluorescence, average over all clones with a mutation at D187.

T10 sequence (P61073 whole entry): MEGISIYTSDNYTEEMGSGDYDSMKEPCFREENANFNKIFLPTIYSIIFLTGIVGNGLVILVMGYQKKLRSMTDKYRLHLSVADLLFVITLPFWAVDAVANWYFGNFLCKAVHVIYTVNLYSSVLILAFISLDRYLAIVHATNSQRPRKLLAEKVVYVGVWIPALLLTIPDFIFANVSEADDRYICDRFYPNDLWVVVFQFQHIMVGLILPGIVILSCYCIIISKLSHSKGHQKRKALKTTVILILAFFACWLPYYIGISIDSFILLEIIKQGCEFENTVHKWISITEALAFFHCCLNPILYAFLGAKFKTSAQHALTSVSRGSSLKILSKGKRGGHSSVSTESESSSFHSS
T2 sequence (P61073 whole entry I245V/E277A/N298S): as the sequence (P61073 whole entry) above, with I245V, E277A, N298S counted along it
T4 sequence (P61073 whole entry V155E/F189L/S319P): as the sequence (P61073 whole entry) above, with V155E, F189L, S319P counted along it
T6 sequence (P61073 whole entry W195R): as the sequence (P61073 whole entry) above, with W195R counted along it
T7 sequence (P61073 whole entry S178R/K230E): as the sequence (P61073 whole entry) above, with S178R, K230E counted along it
T3 sequence (P61073 whole entry E179V/C218R/S351T): as the sequence (P61073 whole entry) above, with E179V, C218R, S351T counted along it
T8 sequence (P61073 whole entry N192K): as the sequence (P61073 whole entry) above, with N192K counted along it
T1 sequence (P61073 whole entry F189V): as the sequence (P61073 whole entry) above, with F189V counted along it
T9 sequence (P61073 whole entry Y157C/D187A): as the sequence (P61073 whole entry) above, with Y157C, D187A counted along it
T5 sequence (P61073 whole entry P163L/S178I): as the sequence (P61073 whole entry) above, with P163L, S178I counted along it

B1: 238D2: monovalent anti CXCR4 Nanobody, SEQ ID NO: 2 (protein)
VHH: EVQLVESGGGLVQTGGSLRLSCAASGFTFSSYAMSWVRQAPGKGLEWVSGIKSSGDSTRYAGSVKGRFTISRDNAKNMLYLQMYSLKPEDTAVYYCAKSRVSRTGLYTYDNRGQGTQVTVSS
modifications: Nanobody
With B1, in [1], the “% immunofluoresence, clone 1129” value is reported as −1.9 (24.2) %. In addition, the “% immunofluoresence, clone 185” value in test [2] is given as 35.5 (12.3) %. In addition, the “average nanobody reactivity, residue N192” value in [3] (all clones containing a mutation at N192, * high stringency conditions) was 8.3*. Besides, in [3] (all clones containing a mutation at P191, * high stringency conditions), the “average nanobody reactivity, residue P191” value is on record as 15.8*. Moreover, the “average nanobody reactivity, residue V196” value in test [3] (all clones containing a mutation at V196, * high stringency conditions) was 20.6*. In addition, the “average nanobody reactivity, residue W195” value in test [3] (all clones containing a mutation at W195, * high stringency conditions) was 10.0*. The “average nanobody reactivity, residue E277” value in [3] (average of all clones containing a mutation at E277, * high stringency conditions) is given as 27.5*. Further, in [3] (average of all clones containing a mutation at F189), the “average nanobody reactivity, residue F189” value is given as −0.9. The “% immunofluoresence, clone 414” value in test [4] was 71.1 (6.7) %. Moreover, in test [5], the “% immunofluoresence, clone 465” value was 31.8 (16.2) %. Further, the “% immunofluoresence, clone 709” value in test [6] was 64.1 (19.6) %. Besides, the “% immunofluoresence, clone 3630” value in test [7] is given as 10.0 (10.4) %. Further, the “% immunofluoresence, clone 1057” value in [8] is given as 54.6 (5.8) %. Further, the “% immunofluoresence, clone 914” value in test [9] is 8.3 (3.6) %. In [10], the “% immunofluoresence, clone 3728” value was 77.1 (18.2) %. Moreover, in the test with CXCR4 (maximal displacement), the “[^125I]-238D2 Displacem. (%)” value came to 97 ± 6%. The “[^125I]-238D2 pKi” value with CXCR4 (receptor affinity) is listed as 8.41 ± 0.11.

B2: Nanobody 238D4 (VHH)
VHH: EVQLMESGGGLVQAGGSLRLSCAASGRTFNNYAMGWFRRAPGKEREFVAAITRSGVRSGVSAIYGDSVKDRFTISRDNAKNTLYLQMNSLKPEDTAVYTCAASAIGSGALRRFEYDYSGQGTQVTVSS
For the molecule B2, the average nanobody reactivity in [11] was -12.2%.
